Results reported in patent US8865657B2, “Compositions and methods for inactivating or suppressing inflammatory cells” (New York University, priority 2005, dated 2014).

B1: RAP: Recombinant human RAP, universal inhibitor of ligand binding to LRP-1 (protein, UniProt P30533 35-357, looked up)
Alpha-2-macroglobulin …: YSREKNQPKPSPKRESGEEFRMEKLNQLWEKAQRLHLPPVRLAELHADLKIQERDELAWKKLKLDGLDEDGEKEARLIRNLNVILAKYGLDGKKDARQVTSNSLSGTQEDGLDDPRLEKLWHKAKTSGKFSGEELDKLWREFLHHKEKVHEYNVLLETLSRTEEIHENVISPSDLSDIKGSVLHSRHTELKEKLRSINQGLDRLRRVSHQGYSTEAEFEEPRVIDLWDLAQSANLTDKELEAFREELKHFEAKIEKHNHYQKQLEIAHEKLRHAESVGDGERVSRSREKHALLEGRTKELGYTVKKHLQDLSGRISRARHNEL
B2: Lactoferrin: lactoferrin (LF; from bovine colostrum), another LRP-1 ligand (protein, UniProt P24627 20-708, looked up)
Lactotransferrin: APRKNVRWCTISQPEWFKCRRWQWRMKKLGAPSITCVRRAFALECIRAIAEKKADAVTLDGGMVFEAGRDPYKLRPVAAEIYGTKESPQTHYYAVAVVKKGSNFQLDQLQGRKSCHTGLGRSAGWIIPMGILRPYLSWTESLEPLQGAVAKFFSASCVPCIDRQAYPNLCQLCKGEGENQCACSSREPYFGYSGAFKCLQDGAGDVAFVKETTVFENLPEKADRDQYELLCLNNSRAPVDAFKECHLAQVPSHAVVARSVDGKEDLIWKLLSKAQEKFGKNKSRSFQLFGSPPGQRDLLFKDSALGFLRIPSKVDSALYLGSRYLTTLKNLRETAEEVKARYTRVVWCAVGPEEQKKCQQWSQQSGQNVTCATASTTDDCIVLVLKGEADALNLDGGYIYTAGKCGLVPVLAENRKSSKHSSLDCVLRPTEGYLAVAVVKKANEGLTWNSLKDKKSCHTAVDRTAGWNIPMGLIVNQTGSCAFDEFFSQSCAPGADPKSRLCALCAGDDQGLDKCVPNSKEKYYGYTGAFRCLAEDVGDVAFVKNDTVWENTNGESTADWAKNLNREDFRLLCLDGTRKPVTEAQSCHLAVAPNHAVVSRSDRAAHVKQVLLHQQALFGKNGKNCPDKFCLFKSETKNLLFNDNTECLAKLGGRPTYEEYLGTEYVTAIANLKKCSTSPLLEACAFLTR

Assays:
Kupffer cells [1] = assay: Inositol-1,4,5-trisphosphate (IP3) assay in Kupffer cells; assay type: cell-based, rat; details: data not shown
Method: (§1) Liver cell isolation. […] The nonparenchymal cell-containing supernatant was saved.
(§2) Cell culture. […] HepG2 cells were used on day 3 after plating.
Inositol-1,4,5-trisphosphate (IP3) assay. Intracellular IP3 levels were measured with a IP3 [^3H] Biotrak Assay (Amersham Biosciences, Piscataway, N.J.). Liver cells (3.0×10^6 per well) were incubated for 0, 30, 60, 120 sec with 100 nM CSP in RPMI-1640 containing 10 mM LiCI. The plates were then placed on ice, and the reaction was stopped by aspiration of the incubation medium followed by the addition of 20% ice-cold perchloric acid. After incubation on ice for 20 min, the cells were scraped into Eppendorf tubes. The precipitated protein was removed by centrifugation at 10000 g for 15 min at 4° C. The supernatant was neutralized to pH 7.5 by titrating with ice-cold 1.5 M KOH containing 60 mM HEPES buffer. The precipitated KClO4 was removed by centrifugation at 5000 g for 15 min at 4° C. Radioactivity in the supernatant was measured with a Beckman LS 6000 scintillation counter.

Kupffer cells [2] = assay: cAMP radioimmunoassay, intracellular cAMP in Kupffer cells; assay type: cell-based, rat; details: for effect on cAMP level, agent alone: RAP 500 nM alone, lactoferrin 100 nM
Method: as §1, §2
(§3) Cell treatment. […] Role of calcium and cyclic AMP. […] J Immunol 174: 2981-2989). […] IBMX was dissolved in dimethyl sulphoxide (DMSO).
(§4) cAMP radioimmunoassay. For cAMP determination, liver cell cultures were incubated in culture medium without FCS at 37° C. for 0-90 min. The cultures were then placed on ice, and the reaction was stopped by aspiration of the incubation medium followed by the addition of 1 ml of ice cold 65% (vol/vol) ethanol. The cells were scraped into Eppendorf tubes and centrifuged at 10000 g for 10 min at 4° C. The supernatants were dried in SC110 Speedvac Concentrator (Savant, Farmingdale, N.Y.) at room temperature, and the dried extracts were dissolved in assay buffer for cAMP determination with cAMP [^125I] Direct Biotrak Assay from Amersham Biosciences (Piscataway, N.J.), according to the instructions of the manufacturer. Samples were analyzed with a Beckman LS 6000 scintillation counter. The cAMP level in each sample was normalized to the protein concentration and expressed as fmol/μg of protein. Ethanol-precipitated cell pellets were diluted with 0.15 M NaOH and the protein concentration was measured with the Micro BCA Protein Assay Kit (Pierce Chemical Co., Rockford, Ill.) according to manufacturer's instructions.

Liver endothelial cells = assay: cAMP radioimmunoassay, intracellular cAMP in liver endothelial cells; assay type: cell-based, rat
Method: as §1, §2, §3, §4

HepG2 cells = assay: cAMP radioimmunoassay, intracellular cAMP in HepG2 cells; assay type: cell-based, human
Method: as §2, §3, §4

Hepatocytes = assay: cAMP radioimmunoassay, intracellular cAMP in hepatocytes; assay type: cell-based, rat
Method: as §1, §2, §3, §4

Molecule	effect on IP3, agent alone (Kupffer cells [1]; RAP alone)	effect on the CSP-induced IP3 increase (Kupffer cells [1]; preincubation 10 min with 500 nM RAP before CSP)	effect on cAMP level, agent alone (Kupffer cells [2]; Kupffer cells)	effect on the CSP-induced generation of cAMP (Kupffer cells [2]; added 10 min before 50 nM CSP (30 min), RAP 500 nM)	cAMP (Liver endothelial cells; Liver endothelial cells, 100 nM lactoferrin, 30 min at 37° C., mean±S.E.) [fmol/μg protein]	effect on cAMP concentration (Liver endothelial cells; endothelial cells)	cAMP (HepG2 cells; HepG2 cells, 100 nM lactoferrin, 30 min at 37° C., mean±S.E.) [fmol/μg protein]	effect on cAMP concentration (HepG2 cells; human hepatoma cell line HepG2)	cAMP (Hepatocytes; Hepatocytes, 100 nM lactoferrin, 30 min at 37° C., mean±S.E.) [fmol/μg protein]	effect on cAMP concentration (Hepatocytes; hepatocytes)	cAMP (Kupffer cells [2]; Kupffer cells, 100 nM lactoferrin, 30 min at 37° C., serum-free RPMI-1640, mean±S.E.) [fmol/μg protein]
B1	had no effect	prevented this increase	had no effect	blocked	–	–	–	–	–	–	–
B2	–	–	no significant effect	–	5.58 ± 0.30	no significant effect	6.50 ± 0.07	no significant effect	2.61 ± 0.09	no significant effect	14.10 ± 2.10
